Assay results: patent publication US11766479 (ZHEJIANG SHIMAI PHARMACEUTICAL, dated 2023)

T1: recombinant human ENPP3 (full-length extracellular domain) (human, UniProt O14638 31-875)
T1 construct: extracellular domain; Bought protein; also called Human ENPP3 (CD203c) protein
T1 sequence (looked up): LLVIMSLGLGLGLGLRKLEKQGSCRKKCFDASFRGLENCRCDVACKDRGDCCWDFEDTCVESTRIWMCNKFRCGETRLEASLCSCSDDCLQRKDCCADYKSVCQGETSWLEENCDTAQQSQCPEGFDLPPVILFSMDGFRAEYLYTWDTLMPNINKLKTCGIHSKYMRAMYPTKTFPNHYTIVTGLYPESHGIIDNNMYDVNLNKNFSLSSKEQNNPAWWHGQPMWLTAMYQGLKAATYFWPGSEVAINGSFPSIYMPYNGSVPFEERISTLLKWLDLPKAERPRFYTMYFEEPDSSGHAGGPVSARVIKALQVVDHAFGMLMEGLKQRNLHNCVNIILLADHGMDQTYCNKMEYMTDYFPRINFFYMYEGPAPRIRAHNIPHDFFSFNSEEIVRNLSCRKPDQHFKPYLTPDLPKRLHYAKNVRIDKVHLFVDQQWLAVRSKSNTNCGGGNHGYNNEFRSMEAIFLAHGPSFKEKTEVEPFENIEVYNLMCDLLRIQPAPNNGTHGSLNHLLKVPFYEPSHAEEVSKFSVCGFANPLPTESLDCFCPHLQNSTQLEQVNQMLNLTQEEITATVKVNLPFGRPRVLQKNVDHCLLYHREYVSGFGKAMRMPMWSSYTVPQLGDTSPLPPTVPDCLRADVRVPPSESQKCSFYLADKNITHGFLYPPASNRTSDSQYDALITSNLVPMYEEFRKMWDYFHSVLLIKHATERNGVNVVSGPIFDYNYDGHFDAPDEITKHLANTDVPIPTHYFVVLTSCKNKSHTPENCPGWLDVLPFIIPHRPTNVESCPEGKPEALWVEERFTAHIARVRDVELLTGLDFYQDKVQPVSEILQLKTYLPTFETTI

B1: hexahistidine-tagged 3A10 Fab (Fab, V domains shown)
VH: EVQLVESGGGLVKPGGSLRLSCAASGFTFSNAWMSWVRQAPGKGLEWVSYISSSGSTIYYADSVKGRFTISRDNAKNSLYLQMNSLRAEDTAVYYCARLAGPYYFDYWGQGTLVTVSS
VL: QSVVTQPPSVSAAPGQKVTISCSGSSSNIGNNYVSWYQQLPGTAPKLLIYDNNKRPSGIPDRFSGSKSGTSATLGIDGLRTGDEAEYFCGVWDSSLRAELFAGGTKVTVL
notes: Human Fab from a phage library with a lambda light chain, made in E. coli HB2151; also called Fab 3A10; anti-ENPP3 Fab 3A10
B2: anti-ENPP3 3A10 mAb (antibody, human IgG1, lambda, V domains shown)
VH: B1 VH
VL: QSVVTQPPSVSAAPGQKVTISCSGSSSNIGNNYVSWYQQLPGTAPKLLIYDNNKRPSGIPDRFSGSKSGTSATLGIDGLRTGDEAEYFCGVWDSSLRAELFAGGTKVTVLS
notes: Intact human IgG1 with wild type Fc and a lambda light chain, expressed in 293FS cells; also called anti-ENPP3 monoclonal antibody

Tests used:
[1] = target: T1, recombinant human ENPP3 (full-length …); experiment: ELISA, recombinant human ENPP3 coated at 200 ng per well, detection with HRP anti-FLAG
Description: The hexahistidine (HHHHHH, SEQ ID NO: 35)-tagged 3A10 Fab was expressed in *E. coli* strain HB2151 and purified from the soluble fraction of periplasm by using the Ni-NTA resin. Then ELISA was performed by using standard protocols to measure binding affinity to recombinant human ENPP3 (full-length extracellular domain). Briefly, the recombinant human ENPP3 (ACROBiosystems) was coated on Corning EIA/RIA high-binding 96-well plates (Corning Inc.) at 200 ng per well overnight at 4° C. and blocked with 3% nonfat milk in PBS (pH7.4). Five-fold serially diluted antibodies were added accordingly and then incubated at room temperature for 2 h. The plates were washed with PBS containing 0.05% TWEEN® 20. Bound antibodies were detected by HRP-conjugated anti-FLAG tag antibody (Sino Biological). The assay was developed at room temperature with TMB substrate (Solarbio) and OD value was measured at 450 nm with a microplate reader.

[2] = target: T1, recombinant human ENPP3 (full-length …); experiment: ELISA, recombinant human ENPP3 coated at 100 ng per well, detection with anti-human IgG Fc-peroxidase
Description: ELISA was performed according to standard protocols, to determine binding affinity of anti-ENPP3 3A10 mAb to recombinant human ENPP3 (AcroBiosystems). Briefly, recombinant human ENPP3 was coated on Corning EIA/RIA high-binding 96-well plates (Corning Inc.) at 100 ng per well overnight at 4° C. and blocked with 3% nonfat milk in PBS (pH7.4). Five-fold serially diluted antibodies were added and incubated at 37° C. for 1 h. The plates were washed with PBS containing 0.05% TWEEN® 20. Bound antibodies were detected by anti-human IgG (Fc-specific)-peroxidase antibody (Sigma). The assay was developed at room temperature with TMB substrate (Solarbio) and monitored at 450 nm with a microplate reader. The half-maximal binding ($EC50$) was calculated by fitting the data to the Langmuir adsorption isotherm.

Row | Binder | EC50 [1] | EC50 [2]
1 | B1 | 9.17 nM | 
2 | B2 |  | 0.107 nM
